The NTF2 design screens of Basanta et al. (2020)

Test: protease stability score; higher = more stable; yeast display proteolysis, trypsin and chymotrypsin;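 also: relative to predicted unfolded state with 0 unfolded-like and 1 meaning tenfold more protease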

Sequence | protease stability score
DESTRDFRQFFKLLVEHFKTGDWRRLADLFDPNVRVEINGRELHGRENIALWLRDRFKHLGVDHVHMRIRDLEVQGDKIRIHVELEIRVGDKVFYHETVLVIEKFDGRWIVHEEEYK | 1.49
DESTRDVKEMVEWFLRTLHTGDEHLLEHLLDPDVRVLIDGREHHGRETMREIWKEHIDKIKGAVIEIKRIEVRIQGNKAHLHVDTVLHYNGRNLDTHIEIIITKINGQWRVREVEIRVR | 2.21
DESTSQARKAIEQLIHVEETGDEEMFSTLVDPHVRMDYNGVELHGMEKARNHWNELWKRFKGIKIELKRLEIQGNKVRVQMTYIVGDKNKYVEIHITKIDGQWVITEIHVD | 1.12
DETASRAAERYMKALQTGDPDEVVKQIDPNVHVRVGDKEVQGKEQFRKKQERDKKQARYHIKHVTFNVEGDKVRVDVIFRKHHNGQPRHDRMEQRMSVRGDKITHQENHKTG | 0.172
DETDEHAHKMFEIIIHYLLTGDWKELIKLADPHVKLEFDINGKTIDLVGRELFTEFFLRFKNVRSEIDDVRHIGDKNHARVRVNWDGRDTEVQIDIVIIDGVVHRVRLIFK | 2.59
DETDEWAHKLMELILEYWLTGDWDLFNELADPNVKLIINGRESVGREEVREMLERTLKEIRLRRIEIDHVRIYDGRAQTHSRTDGDVNGKVTETHMHLHVLLINGRIRHVEIRLH | 2.02
DETDEYARNMMEIFVHLLATGNEEKMLEYMDPNTRHNFNGVVLHGRDVLREWWHRWLKEIRITRTRIDHVHTQGEYVHANTTVEGTIDGRKFELETRVHLHVVNGRIKESSIKLN | 1.51
DETDKLAFELMEELLENFHTGNEERFHQLFDPDVRIIVNGRTLHGRRHWHKILEDIIREWRIKHIHMERLISIGDKARLDMRWNVRVNGREVHTESHVNLTVVDGRITLLEIQHH | 1.52
DETEDEMHKVLKLWIEAYRTGDEELLEELFDPHVRLDINGKDFHGREAFTRQVRHEMKHLRYEDFHIDTVEVQGEKAFVHGRIVGKFDGRRRHMHSHLIILKINGRWHVESLHFK | 1.26
DETEDTIHEAVKEFVTALMTGDEELLQKLMDPRTRLDYNGREIHGREEVIRLLLEMRIHHVEIKRIEIQGNKVHVDVKVDGEFNGQRRETKTIINATKINGRWVVQELVIR | 2.26
DETEDTSRHLLELFAHALRTGDEESSDRLLDPHVRIDINGKELIGRERFRELWEEMRIEWVKIRDVSIINGQVHVNGEMLMVYDGRTYTIETRIIILKVDGRWVIEHMKIG | 1.43
DETEEAVLSVARLWLHLFLTGDEERTQKMMDPNARVEIDGKEVVGREKVTDMIRHKIEQIRIQDHKEKDIKVIGDKVHLHVQFHGEVDGKEINTLILINVMVVDGRIKHVEIRVS | 0.77
DETEEDARHFVELWRRDMITGDEDRIKEMADPNVRVIIGDKNLHGREDMTEVLRHLRIHRVNVHSIHVQGDWVHITTEVDGRIGDKRHELEVHILTRKVNGRWQLQTLEIG | 1.12
DETEEDVREAIRKMLHSTRTGDEEDNKKLMDPNVQIDIDGVKYHGWETWVEHMRRVDHLRMKIHSIEVQGNKLIVDGELDQRFNGVQLRFRSELILVKIDGRWLVHSIHFK | 1.17
DETEEEARHVFELIIEYHLTGDWDKWLRMFDPHVKLVVNGRDNHGREHAVHRLKEFLRQWRIHDVEVKSVDLQGDKVRVDGRLDGIVNGVREKTEVTLSLIVVDGKIKSHEVRIH | 1.51
DETEEEVREAIEKFIQDLHTGNWHAYNEMLDPNVRVIVGDKHLHGRERVLEWEEEFMRKVKGATYRIDHMDVIDGRINLHFRITIGDKSREFNVHSLKINGQWHTKEVRVNIL | 1.06
DETEEEVRKFVEESVKQNNTGNEDFAKRLADPNARFEQGDKELHGREEMRRVLVELWFEDYRIERLHVQGNKVEVEVVVHGVVNGKHQEVRVIIILLKINGRWVFRDVTVK | 0.648
DETEEIAKKVVEYWIREFMTGNEESLLELIDPNAKSDILQGDKELHIVGRESARLFIKRFKGQRMEITHLEVHVQGDKVHVRLHVDIIYNGRKFHVISHVDWEKIDGRWIIHQEKFVFE | 1.71

Sequence | protease stability score
DETEELFEEIVKIFIEAMETGDWRLLKRMVDPHVRSIQGDFHLHGRESMLELWLHIRIDRITLTDARVRIQGEKVHVDLRVKTNGIINGRRKDTQTHVHLHLDKVNGVWSITITNIIFE | 0.553
DETEEMAEEVLRRFLEINRTGDWKDLHRLFDPNVRIVVNGQELHGMELYLKHEIKTRRKLGAKVEEVRLKHLDSQGEKIISEVEIIFDINGQEIRLDVRVIMNKIDGKWTIRELRIH | 1.08
DETEEMARLFNEEVRHSWKTGNEEHIKRLIDPHAKVHIGDKELHGRERATETIRKLGVKHLEIDDIHIIDGRVHVDGTLDVDGQSFRVEIILSKVNGRWLNEEIRIH | -0.344
DETEEMIKRHMDKLFRAVRTGDWDQFVKLADPNTRIEVGDFHYHGWERFSEFMSELRIHRFRMHDSEVVNGRVHLHTEEDGEVNGKRRESRVHRVLLKIDGRWHLHSVHIE | 0.909
DETEEMVREMAHLFLHLWITGDEEIIKHLLDPSVRLHINGVDNHGRENALEVVHRILKELRLRHLHIHEVHIINGVIHNNIRLDIEQGDKRRILEIEVILVVWNGKIKSIEVRLK | 1.51
DETEERTRKAIKLSLEVLRTGDERVISEMADPHVRLDFNGRQLHGREEFVHHIVRFFEEAGINYLHIEDWDVFNGVIIEHVRWNFNGREVEVEIIANKVNGKWLIKEFRIK | 1.07
DETEEVMERVIQMLAHATHTGDWKDIRRLMDPNVKININGREIIGREELIRYLRELRETYHHFELKHVEVQGDKIIVHGRTLIRIEIGDKEIHLDSDVRYILWKVDGRWIMESIHIV | 2.18
DETEHHAREMAELLLHVILTGDEHLMERLIDPDVKLHSFFNGRQFHRIGMEELKRYLEEWRREIRLKDVRIRQFEVQGDKFRLDMEVEGNINGRDNVTKTELIIITVNGRLHEIDIRIE | 2.1
DETEKHILKLAEMLVRDWITGNEENIMELLDPHAKIDIHIDGRYLEFHGRELITRELIRHYEEIRIHYHFRESESVGEKASINMDVEVHIGDKIVRSHTEVILDIVNGRVRNIHIRWK | 2.23
DETEKHVKHLTELWMHAWLTGDEDLLEHLLDPHTRVIIFYGDKNYHFHGRESIHIRFYELGAKHVRDFRIRDSKIQGNKLLLNGEENGLVNGRQTETEVRIELVWIDGRVHSIVVRIH | 1.3
DETEKIVRSVVHMFLHLMHTGDWEELMKLADPNTIVHFENHRKHGREDAIRHIIEFILRADHIEVHLDEIRIQGDKVYLNLRLILDINGRRIETRVHIILVKINGRWRIHSMDVE | 1.4
DETENSLRTMLHRLLDSIRTGDFRTVDDLADPHVKIDVGDKHIHGREIYRKIVLQADHVESRFHLHDIHNIGNWAHVDGRLINHEVVDGQKIDLDLRIEIIVTKIDGKWTIESVRFE | 1.46
DETERDVREAVRIWNEDVETGNEESLLRLIDPHVRLVINGQTFHGMESMLEVLNEFLKHIRVEHIEVKRIEIQGDKAIIDTNMDIEIDGKRKQKKTTLIIRKFNGRWHLSLVEIR | 1.86
DETERLAEKWYRHWLHLILTGDWELLEKQADPHYKFHVGDKVFIGRELASEWLRHLYEHIRIDDMKITHLDLQGDKINNDGRMRVTQGEKHKEVSVDLHMIVVNGKMHEIRIRTH | 1.45
DETERWAHLMLKLMQRYQETGDEDSLLELMDPEAKIDINGKEIHGREEWREHRYHHLRELGHTNIDVRVHLRRMHNVGDKANVRGELRININGKKLSVDVIIIILKIDGRWVIESLRLE | 0.736
DETETAKRFALEMLLHTLRTGDEEDKLRMLDPNARLVIGDKEFWGWKEFKKFVEKESRELRIQDSRIQHVELQGDKLHLDSVIIGQVNGVTVELKVEFVMNKIDGKWRVEEIIVR | 1.34
DETFEDAHKLFKKFWEDMRTGDESEIEKLLDPNDKVHQGEKQTHGREEASRTHQEDIRRVDVFERVHIDHIETQGDFAIIDSTWIIHFDGKRFTRKVIIFLVKINGQWKFHSITMR | 0.71
DETFEWANIAIEHLIHSARTGDEKTFEEMADPDTRFLYNGQIIIGREEVNKMLSTVLREIRLEDVQVKRIEVYDGRVHSDMTRQGEFDGRHFTSKTEFIVHKVDGRWSIKEIRIT | 0.89
